From PMC9317633, “Antifungal Effect of Penicillamine Due to the Selective Targeting of L-Homoserine O-Acetyltransferase” (International Journal of Molecular Sciences, 2022) come the findings set out here.

Series [1] addresses T1, CaMet2NHp (Candida albicans, UniProt Q5A948).
T1 construct: gene MET2; full length with N-terminal oligo-His tag (kept), ~45 kDa; E. coli Rosetta (DE3) pLysS; dimer only in model
T1 sequence (Q5A948 1-409): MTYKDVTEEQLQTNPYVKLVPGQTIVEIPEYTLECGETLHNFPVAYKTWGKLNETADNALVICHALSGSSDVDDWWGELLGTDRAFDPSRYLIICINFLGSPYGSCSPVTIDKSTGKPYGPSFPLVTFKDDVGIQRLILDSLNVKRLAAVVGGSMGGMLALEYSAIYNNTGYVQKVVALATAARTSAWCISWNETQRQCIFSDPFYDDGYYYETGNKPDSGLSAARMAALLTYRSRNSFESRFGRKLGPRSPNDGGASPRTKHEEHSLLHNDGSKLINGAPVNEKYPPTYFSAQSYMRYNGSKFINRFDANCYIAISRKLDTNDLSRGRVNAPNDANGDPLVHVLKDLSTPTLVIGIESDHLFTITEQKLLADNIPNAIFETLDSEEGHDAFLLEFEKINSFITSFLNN
The experiment in a line: inhibition, DTNB end-point assay of CoA formed, […] nm. Type of series: biochemical.

Series [2] concerns the target T1, CaMet2NHp. The series is described as above. Type of series: biochemical. The settings on record: read-out: % inhibition at 25 mM.
Substrate in series [3]: CC(=O)SCCNC(=O)CCNC(=O)[C@H](O)C(C)(C)COP(=O)(O)OP(=O)(O)OC[C@H]1O[C@@H](n2cnc3c(N)ncnc32)[C@H](O)[C@@H]1OP(=O)(O)O
The experiment in a line: purified protein. The series is classed as biochemical, Candida albicans. The settings on record: 10 mM L-Hom, pH 8.0 phosphate, 100 mM NaCl, 1 mM EDTA, 37 °C.

Substrate in series [4]: N[C@@H](CCO)C(=O)O
As to the kind of experiment: purified protein. The series is classed as biochemical, Candida albicans. Particulars: 3.5 mM AcCoA, pH 8.0 phosphate, 100 mM NaCl, 1 mM EDTA, 37 °C.

On CaMet2NHp [1], `CC(C)(S)[C@H](N)C(=O)O` [L-Pen] showed a half-inhibitory concentration (IC50) of roughly 2000 µM.
Take `CSCC[C@H](N)C(=O)O` [L-Met]: the inhibition at 25000 µM on CaMet2NHp [2] amounted to 17%.
Turning to `CC(C)(S)[C@@H](N)C(=O)O` [D-Pen], the IC50 against CaMet2NHp [1] was roughly 2000 µM.

B1: CaMet2p (Candida albicans SC5314) (protein)
chain: T1 sequence (Q5A948 1-409)
notes: E. coli BL21 Star (DE3); dimer only in model
Turning to B1, in the series “purified protein [3]”, the Km is 906 ± 119 µM, the Vmax is 20.1 µmol/min/mg, the kcat was found to be 15.2 ± 0.572 s⁻¹ and the catalytic efficiency (kcat/Km) is 16800 M⁻¹ s⁻¹. Further, in the series “purified protein [4]”, the Km is 405 ± 50 µM, the Vmax is 17.1 µmol/min/mg, the kcat stood at 13 ± 0.405 s⁻¹ and the kcat/Km was determined as 32100 M⁻¹ s⁻¹.

B2: CaMet2NHp (Candida albicans SC5314) (protein)
chain: T1 sequence (Q5A948 1-409)
notes: full length with N-terminal oligo-His tag (kept), ~45 kDa; E. coli Rosetta (DE3) pLysS; dimer only in model
In the case of B2, in the series “purified protein [3]”, the Km worked out at 1130 ± 150 µM, the Vmax was determined as 19.8 µmol/min/mg, the kcat came to 15 ± 0.635 s⁻¹ and the kcat/Km came out at 13300 M⁻¹ s⁻¹. In the series “purified protein [4]”, the Km came out at 578 ± 118 µM, the Vmax is 17.2 µmol/min/mg, the kcat worked out at 13.1 ± 0.723 s⁻¹ and the kcat/Km is 22700 M⁻¹ s⁻¹.
